Legend:
Assay in all cases: peptide or protein array; PEPperCHIP microarray of 15 amino acid peptides with 10 amino acid overlap, immobilised; survivin at 1 μg/ml (53.5 nM monomer) in incubation buffer; stained with 6x His Tag Antibody DyLight680; LI-COR Odyssey read-out
[1] = target: microarray peptides covering EED 128–152 (human)
[2] = target: microarray peptides covering EZH2 172–211 (human)
[3] = target: microarray peptides covering JARID2 170–194 (human)
[4] = target: microarray peptides covering SUZ12 573–597 (human)
[5] = scale: % of maximum fluorescence intensity units

Sequence of survivin (His-tagged, from pHIS8) (O15392 whole entry): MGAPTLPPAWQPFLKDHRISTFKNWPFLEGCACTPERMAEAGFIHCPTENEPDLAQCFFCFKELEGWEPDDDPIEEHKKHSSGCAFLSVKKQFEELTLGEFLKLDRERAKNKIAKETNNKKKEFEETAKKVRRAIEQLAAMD

“survivin (His-tagged, from pHIS8) (from UniProt O15392 1-142) (natural protein)” was tested, and the Integrated FI (units of the maximum FI per peptide) [1] was 0.31, the Average FI (%) [1, 5] was 10 and the Integrated FI (units of the maximum FI per peptide) [2] was 4.28. The Average FI (%) [2, 5] was 71, the Integrated FI (units of the maximum FI per peptide) [3] was 3 and the Average FI (%) [3, 5] was 100. For the same substance, the Integrated FI (units of the maximum FI per peptide) [4] was 0.6 and the Average FI (%) [4, 5] was 20.
